Biological target: Elongation Factor 1 alpha (EF1α), endogenous in rat liver lysosomes (rat (endogenous in rat liver)) (UniProt P62630)
Assay: co-IP

Sequence of UniProt P62630 (P62630 whole entry): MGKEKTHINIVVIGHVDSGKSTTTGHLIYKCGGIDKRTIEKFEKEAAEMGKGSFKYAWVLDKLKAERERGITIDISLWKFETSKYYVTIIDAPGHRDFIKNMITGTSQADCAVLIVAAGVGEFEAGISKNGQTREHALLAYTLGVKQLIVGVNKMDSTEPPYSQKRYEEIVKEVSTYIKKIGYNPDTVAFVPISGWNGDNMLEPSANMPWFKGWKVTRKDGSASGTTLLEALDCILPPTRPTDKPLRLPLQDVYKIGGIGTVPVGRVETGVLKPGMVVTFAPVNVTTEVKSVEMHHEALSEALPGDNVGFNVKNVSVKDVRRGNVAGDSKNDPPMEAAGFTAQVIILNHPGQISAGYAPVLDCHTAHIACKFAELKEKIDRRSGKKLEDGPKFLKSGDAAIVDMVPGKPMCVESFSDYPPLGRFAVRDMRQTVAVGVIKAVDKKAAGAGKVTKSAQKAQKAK

- decrease of GFAP co-immunoprecipitated with EF1α upon addition of GTP: 47.2%
Substance: glial fibrillary acidic protein (GFAP), endogenous in rat liver lysosomes (from UniProt P47819 1-430) (natural protein)
